experiment: yeast display, Sf9 membrane polyspecificity reagent, FACS + sequencing; frameworks hold sequencing errors
How it was run: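 Nanobodies came from a synthetic yeast display library in Saccharomyces cerevisiae BJ5465, induced with galactose for 36–48 hours and stained for 1 hour at 4 °C with 10% biotinylated, detergent-solubilized Sf9 membrane reagent. Cells were enriched on streptavidin microbeads and then FACS-sorted, with low and high (top ~1%) gates set on anti-HA fluorescence for expression and streptavidin fluorescence for reagent binding. Each polyreactivity label reflects the gate a clone came from. Genes were amplified by colony PCR, sequenced by MiSeq 2 × 250 and filtered by CDR length.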

Sequence | polyreactivity (PSR sort gate)
QVQLVESGGGLVQAGGSLRLSCAASGSTFVDNDMGWYRQAPGKERELVAAAITARGGSTYYADSVKGRFTISRDNAKNTVYLQMNSLKPEDTAVYYCAAGRPGELDYWGQGTQVTVSS | low polyreactivity
QVQLVESGGGLVQAGGSLRLSFASSGRIFIAYAMGWYRQAPGIERELVAAITSGGGTYYADSVKGRFTISRDNAKNTVYLQMNSLKPVDTAVYYCAAACGRRYPDKFVAITPTYDFWGQGTQVTVSS | low polyreactivity
LLMGWYRQAPGEERELVAGINDGASTNYADSVKGRFTISRDNARNTVYLKMNSLKPGDTAVYYCAVWQPVLIWFYYWGQGTQVTVSS | high polyreactivity
QVQLGESGGRKVQPGGSLRLSCAASGYTIAWYVMGWSRQAPGKESELVAAISWSGGRTYYADSVKGRFTISRDNAKNTVYLQMNSLNPQDTAVYYCNAYWNPASKYDYWGQGTQVTVSS | high polyreactivity
QVQLVESGGGLVQAGGSLRLSCAASGSILWYNGLGWYRQAPGKEMELVAAITSGGSTNYADSVKGRFTISRDNAKNTVYLQMNSLKQEDTAVYYCATRHSKYGYEYDYWGQGTQVTVSS | low polyreactivity
QVQLVESGGGLVQAAGSLRLSCAASGRIFFAYAMGWNRQEPGKERELVASITSGGSTNYADSVKGRFTISRDNAKNTVYLQMNSLKPEDTAVYYCAARSRFSNLYVRFYYWGQGTQVTVSS | high polyreactivity
QVQLVESGGGLFQAGGSLRLSCAASGRIFGAYTMGWYRQAPGKERELVAAISDGGDTYYADSVKGRFTISRDNAKNTVYLQMNSLKPEDTAVYYCAADAPYYAYYWYPSSLGIYGYWGQGTQVTVSS | low polyreactivity
QVQLVESGGGLVQAGGSLRLSCAASGSIFDYYAMGWYRQAPGKERELVATISGGGGTTYYADSVKGRFTISRDTAKNTVYLQMNSLKPEDTAVYYCAADSLGYNYWGQGTQVTVSS | low polyreactivity
QVQLVESGGGLVQAGGSLRLSCAASGSTLHEYVMGWYRQAPGKGRELVAAISRRGDSTYYADSVKGRFTISRDNAKNTVYLQMNSLKPEDTAVYYCAARWYWYWSSWDYYSWGQGTQVTVSS | low polyreactivity
QVQLVESGGGLVQAGGSLRLSCAASGSIFGDYVMGWYRQAPGKERELVAAINRGGSTYYADSVKGRFTISRDNAKNTVYLQMNSLKPEDTALYYCAAGYPSWYYGYPYDSWGQGTQVTVSS | low polyreactivity
QVQLVESGGGLVQAGGSLRLSCAASGFTFRYYVMGWYRQAPGKERELVARISTGASTHYADSVKGRFTISRDNAKNSVYLQKNSLKPEDTAVYYCASDHPAFGPGYSFDYWGLGTQVTVSS | low polyreactivity
QVQLVESGGGLVQAGGSLRLSCAASGRTFVYYAMGWYRQAPGKERELVAAISSGGSTYYADSVKGRFTISRDNAKNTVYLQMNSLKPEDTAVYYCNALRYTHYLLTYGYWGQGTQVTVSS | high polyreactivity
QVHLVESGGGLVQAGGSLRLSCAASGLTFYPNAMGWYRQAPGKERELVAAITYSTGSTYADSVKGRFTITRDNAKNTVFLQMNSLKPEDSAVYDCAAYWSRVRYGMNYWGQGTQVTVSS | high polyreactivity
QVQLVESGGGLVQAGGSLRLSCPASGFTILDYAMGWYRQAPGKEREMVATINWSDVSTYYADSVKGRFTISRDTAKNTVYLQMNSLKPEDTAVYYCAVDVLTVGQSYDHWGQGTQVTVSS | high polyreactivity
QVQLVESGGGLVQAGGSLRLSCAASGRTFYQYYMGWYRQSPGKEREVVAAIDWSGGSTYYADSVKGRFTISRDNAKNTVYLQMNSLKPEDTAVYYCNADAYPHPVVGYDYWGQGTQVTVSS | low polyreactivity
QVKLVESGGGLVQAGGTLPITCAASGRTFARYAMVWYRQAPGKERELVSAITGRSGTNTYYADSVKGRFTISRDNAKNTVYLQMNSLKPEDTAVYYCAADLQGYYFRGRWTSYDYWGQGTQVTVSS | high polyreactivity
QVQLVESGGGLVQAGGSLRLICAASGRNFTKYAMGLYRQAPGKERELVAAINFRGDRTYYADSVKGRYTISRDNAKNTVYLQMNSLKPEDTAVYYCAAEWSTYWLFNYEYWGQGTQVTVSS | high polyreactivity
QVQLVESGGGLVQAGGSLRLSCAASGRTFFYNAMGWYRQAPGKERELVAAIDWSGDSTYYADSVKGRFTISRDNAKNTVYLQMNSLKPEDTAVYYCAADGGQVDDSATRLYYWGQGTQVTVSS | high polyreactivity
QVQLVESGGGLVQAGGSLRLSCAASGSTFGSYGMGGYRQAPGKERELVAGITSSGSTYYADSVKGRFTISRDNAKNTVYLQMNSLKPDDTAVYYCNARSGIDWYYDNDYWGQGTQVTVSS | low polyreactivity
QVQLVESGGGLVQAGGSLRLSRAASGSTLSLYAMGWYRQAPGKERELVAAITSSGGTYYADSVKGRFTISRDNAKNTVYLQMNSLKPEDTAVYYCAADPRSYFTSEYWGQGTQVTVSS | high polyreactivity
QVQLVESGGGLVQAGGSLRLSCAASGSTYPYAMGWYRQAPGKERELVAAIRWRGGSTKYADSVKGRFTISRDNAKNTVYLQMNSLKPEDTAVYYCARRWYYVLHGYWGQGTQVTVSS | high polyreactivity
QVQLVESGGGLVQAGGSLRLICAASGRTFGGNAMGWYRQAPGKERELVASITSRGGTTYYADSVKGRFTISRDNAKNTVYLQMNSLKPEDTAVYYCAALRRSSFGYWGQGTQVTVSS | high polyreactivity

Sequence | polyreactivity (PSR sort gate)
QVQLVESGGGLVQAGGSLRLSCAGSGSTFHPYAMGWYRQAPGKVRELVAAITWGGGSTYYADSVKGRITISRDNAKNTVYLQMNSLKPEDTAVYYCNAYTLYWPDYDYWGQGTQVTVSS | low polyreactivity
RVQLQESGGGLVQAGGSLRLSCAASGTIFIRGDMGWYRQAPGKEREFVATIDTGSNTYNADSEKGRFTISRDNAKNAVYLQMNCLKPGDTAVYYCVVDYQLSGRLRYWGQGTQVTLSS | low polyreactivity
QVQLVESGGGLVQAGGSLRLSCAASGRIFRYNAMGWSRQAPGKERELVAAISRRGGTTYYADSVKGRFTISRDNAKNTVYLQMNSLKPEDTAVYDCAAQYRQRRHDYWGQGTQVTVSS | high polyreactivity
QVQLVESGGGLVQAGGSLRLSCADSGSILVAKGMGWYRQAPGKESELVAGITTRGGNTYYADSVKGRFTISRDNAKNTVYLQMNSLKPEDTAVYYCAADHLSYRRRYEYWGQGTQVTVSS | low polyreactivity
QVQLVESGGGLVQAGGSLRLSCAASGSTIRYYAMGWYRQAPGKERELVAAISYGGGITNYADSVKGRFTISRDNAKNTVYLQMNSLKPEDTAVYCCAAYYRITRYDYWGQGTQVTVSS | high polyreactivity
QVQLVESGGGLVQAGGSLRLSCAASGRTFLLNAMGWSRQAPGKERELVAAITRSGVITYYADSVKGRFTISRDNAKNTVYLQMNSLKPEDTAVYYCAAQLRYSYLRPSYYYWGQGTQVTVSS | high polyreactivity
QVQLEESGGGLDQAGGSLRLSCAASGRIFFYNAMGWYRQAPGKERELVAGISRSGTSTYYADSVKGRFTNSRDNAKNTVFLQMNSLKPEDTAVYYCAAAAWSVILWREMDYWGQGTQVTVSS | low polyreactivity
QVKLVESAGGLVQAGGSRRLSCAASGSIFRAYAMGWYRQAPGKESELVADISRSGGSTYYADSVKGRFTISRDNAKNNVYLQMNSLIPEDTAVYYCNRLPQYALPYRHNGYWGQGTQVTVSS | low polyreactivity
QVQLVDSGGGLVQAGGSLRLSCAASGFNFDRNTMGWYRKAPGKERELVATISSTGTTNYADSVKGRFTISRDNAKNTVYLQMNSLKPEDTAVYYCNAYPRWRYVSYYRSYRYDYWGQGTQVTVSS | high polyreactivity
QVQLVESGGGLVQAGGSLRLSCAASGFTFEWNTMGWYRQAPGKERELVARINWSSGRTYYADSVKGRFTISRDNAKNTVYLQMNSLKPEDTAVYYCAASPYHSAYQNMDYWGQGTQVTVSS | high polyreactivity
QVQLVESGGGLVQAGGSLRLSCAASGSIFARYAMGWYRQAPGKERELVAAITYSGGSTYYADSVKGRFTISRYNAKNTVYLQMNSLKPEDTAVYYCALRSGYGRWYPYDYWGQGTQVTVSS | high polyreactivity
HVQLVESGGGLVQAGGSLRLSCAASGRSLSDYAMGWYRQAPGKERELVATITSGDSTNYADSVKGRFTISRDNEKNTVYLQMNSLKPEDTEVYYCNADRFADYDYWGQGTQVTVSS | low polyreactivity
QVQLVESGGGIVQAGGSLRLSCAASGRTFKWNAMGWYRQAPGKEREFVATISYSGGSTYYADSVKGRFTISRDIAKNSVYLQMKSLKPEDSAVYYCAAGSPYRFWHRFDYWGQGTQVTVSS | high polyreactivity
QVQLVESGGGLDQARGSLRLSCAASGRTFYSYAMGWYRQAPGKERELVAAISKRGTSTYYADSVKGRFTISRDNAKNTVYLQMNSLKPEDTAVYYCDAGAYIWDIYSYRWYDYWGQGTQVTVSS | high polyreactivity
QVQLVESGGGLVQSGGSLRLSCAASGSTLIGNAMGWYRQAPGKERELVAAISSGGRTYYADSVKGRFTISRDNAKNTVYLQMNSLKPEDTAVYYCAADTVGTNVVSPELDYWGQGTQVTVSS | low polyreactivity
QVQLVESVRGLVQAGGSLRLSCAASGRILPSNAMGWYRQAPGKERELVAGITSGGSTDYADSVKGRFTISRDNAKNTVYLQMNSLKPEDTAVYYCNKPFPYYPDGPNGYDYWGQGTQVTVSS | low polyreactivity
QVQLVESGGGLVQAGGSLRLSCAASGSTFLFNGMGWYRQAPGKERELVAAISRSGGRTYYADSVKGRFTISRDNAKNTVYLQMNSLKPEDTAVYYCAAKYRLSGGYGVDYWGQGTQVTVSS | high polyreactivity
QVQLVESGGGLVQAGGSLRLSCAASGRTFLYNAMGWYRQAPGKERELVASLTRRGGTTYYADSVKGRFTISRDFAKNNVYFQMISLKPEVTAVYYCNAQPGISYYYYGHWYGYWGQGTQVTVSS | high polyreactivity
QVRLVESGGGLVQAGGSLRLSCAASGSTFPYYDMGWYRQAPGKERELVAAITWSSGSTYYADSVKGRFTISRDNAKNTVYLQMNSLKPEDTAVYYCAAELYSYREDYGAHYAYEYWGQGTQVTVSS | low polyreactivity
QVQLVESGGGLVQAGGSLRLSCAASGRNFRYYAMGWYRPAPGKERELVAAISGSGGSTYYADSVKGRFTISRDNAKNTVYLQMNSLKPEDTAVYYCNARYRIPSGEGDHWGQGTQVTVSS | low polyreactivity
QVQLVESGGGLVQAGGSLSLSCAASGRIFGHNAMGWYRQAPGKERELVATISSGVRTNYADSVKGRFTISRDNAKNTVYLQMNSLKPEDTAVYYCATKTYQFGYSSYYYWGQGTQVTVSS | high polyreactivity
